Experiment [1] concerns the target T1, human CD105 (R&D Systems, Catalog No. 1097-EN) (human, UniProt P17813 26-586).
T1 construct: Captured on the plate by mouse anti-human CD105 (Southern Biotechnologies 9811-01); also called endoglin
T1 sequence (looked up): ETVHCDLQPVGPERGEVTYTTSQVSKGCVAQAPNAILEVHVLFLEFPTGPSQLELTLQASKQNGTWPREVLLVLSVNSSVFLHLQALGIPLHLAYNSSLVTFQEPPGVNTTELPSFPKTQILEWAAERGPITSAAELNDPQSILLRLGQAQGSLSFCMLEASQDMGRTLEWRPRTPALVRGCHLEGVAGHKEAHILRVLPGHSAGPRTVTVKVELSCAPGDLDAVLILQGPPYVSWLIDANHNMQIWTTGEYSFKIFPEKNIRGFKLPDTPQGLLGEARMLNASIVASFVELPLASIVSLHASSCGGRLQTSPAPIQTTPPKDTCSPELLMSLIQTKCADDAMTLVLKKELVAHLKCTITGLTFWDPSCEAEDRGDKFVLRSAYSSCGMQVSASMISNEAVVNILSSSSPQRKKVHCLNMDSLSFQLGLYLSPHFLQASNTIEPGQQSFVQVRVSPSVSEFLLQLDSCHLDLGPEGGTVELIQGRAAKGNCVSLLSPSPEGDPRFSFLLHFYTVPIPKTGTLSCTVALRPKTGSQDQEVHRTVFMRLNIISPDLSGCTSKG
Briefly: competition ELISA on captured human CD105; competitor biotinylated chimeric anti-CD105. The method, then: Antibodies were tested in a competition ELISA for binding to CD105 against biotinylated chimeric anti-CD105. Briefly, chimeric anti-CD105 was biotinylated using a micro-biotinylation kit (Sigma, Catalog No. BTAG-1KT) following the manufacturer's instructions. […] Binding of the biotinylated chimeric antibody was detected via streptavidin-HRP (Sigma, Catalog No. 55512) and TMB substrate (Sigma, Catalog No. T0440). OD450 nm values were measured on a Dynex MRX TCII plate reader. The results of the competition analysis are illustrated in FIGS. 7 and 8. […] To allow for comparisons within and between experiments, IC50 values of humanized or humanized/deimmunized variants were normalized against the reference antibody that was included on each plate to give a value for the fold difference. IC50 values are relative to chimeric anti-CD105 and are representative of three experiments. Summary ELISA data are presented in Table 1 and include antibody expression levels […]) as assayed in saturated static cultures.
In general terms: An ELISA detects its analyte on a solid surface through an enzyme-linked reagent.

Experiment [2] has as its target T1, human CD105 (R&D Systems, Catalog No. …). As to the kind of experiment: ELISA with OD450 falling against test antibody concentration (competition format of paragraph 712: biotinylated chimeric anti-CD105 on captured human CD105; the legend says only 'binding assay data').
For another experiment, the target named is T2, recombinant endoglin (UniProt P17813 26-586, limits assumed).
T2 sequence (looked up): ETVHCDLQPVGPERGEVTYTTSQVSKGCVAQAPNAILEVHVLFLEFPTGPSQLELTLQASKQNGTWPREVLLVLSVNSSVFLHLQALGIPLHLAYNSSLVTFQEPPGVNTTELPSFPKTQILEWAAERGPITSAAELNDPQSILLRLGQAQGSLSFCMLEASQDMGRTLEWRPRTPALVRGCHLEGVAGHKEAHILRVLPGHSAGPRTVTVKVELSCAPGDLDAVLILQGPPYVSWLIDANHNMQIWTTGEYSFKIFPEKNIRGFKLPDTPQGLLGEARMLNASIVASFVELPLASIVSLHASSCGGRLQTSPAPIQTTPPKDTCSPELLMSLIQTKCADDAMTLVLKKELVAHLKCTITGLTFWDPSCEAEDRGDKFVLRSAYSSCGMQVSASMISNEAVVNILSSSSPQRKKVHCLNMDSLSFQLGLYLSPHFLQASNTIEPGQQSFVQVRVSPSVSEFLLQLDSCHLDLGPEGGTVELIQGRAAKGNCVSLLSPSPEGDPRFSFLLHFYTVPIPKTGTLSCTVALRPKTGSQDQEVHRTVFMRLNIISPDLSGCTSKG
As to the kind of experiment: BIAcore SPR, antibody captured on protein A chip, recombinant endoglin as analyte, 25 C. The method, then: Affinity of antibodies can be assessed using, for example, BIAcore analysis using standard protocols. Briefly, protein A is chemically coupled to a BIAcore CM5 chip, with the amount of protein A immobilized corresponding to ˜2000 R U. Subsequent steps are performed in a running buffer of 10 mM HEPES, 150 mM NaCl, 3 mM EDTA, 0.05% TWEEN, pH=7.4, at 25 degrees Celsius using a 10 Hz data collection rate. Anti-endoglin antibody (10 nM) is captured at a 10 μL/min flow rate by the immobilized protein A on the BIAcore chip: typically, capture times of 20, 40 and 80 seconds allow the capture of antibody densities corresponding to 130 RU, 330 RU and 570 RU, respectively. Start-up cycles are performed using running buffer at a flow rate of 40 μl/min, a contact time of 90 seconds and a dissociation time of 90 seconds. Sample cycles are performed using recombinant endoglin at concentrations ranging from 0 to 40 nM. Endoglin is passed over the BIAcore chip containing captured antibody at a flow rate of 40 μl/min with a contact time of 525 seconds and dissociation time of 2500 seconds. Eight sample cycles are typically performed at each antibody capture density Regeneration of the chip is accomplished using 10 mM glycine pH=1.7. Data analysis is performed using BIAcore T100 Evaluation Software v1.1 Signals generated using BIAcore chips with different captured antibody densities are compared and data generated in the absence of recombinant endoglin are used to adjust for the intraassay blank signal. For fitting of the data, the Rₘₐₓ is allowed to float to account for variation in capture levels of each antibody in each cycle. Data from each capture density is fitted simultaneously during analysis of each antibody. BIAcore data are presented in Table 2 for chimeric, humanized and humanized/deimmunized anti-endoglin antibodies, including kₐ (1/Ms), kd (1/s), KD (M) and […] (RU²).
For orientation: Surface plasmon resonance follows binding to a sensor surface in real time, without labels.

Experiment [3] deals with T1, human CD105 (R&D Systems, Catalog No. …). Briefly: ELISA with OD450 falling against test antibody concentration (competition format of paragraph 712: biotinylated chimeric anti-CD105 on captured human CD105; the legend says only 'binding assay data'). This is another data set of the same source.
Experiment [4] has the same target. The experiment is described as above. The source holds these as a separate data set.
The target is the same in experiment [5]. Described as above. The source holds these as a separate data set.
The target is the same in experiment [6]. The description is as above. The source holds these as a separate data set.
The target is the same in experiment [7]. Described as above. This is another data set of the same source.
The target is the same in experiment [8]. Described as above. The source holds these as a separate data set.
Experiment [9] shares this target. The experiment is described as above. This is another data set of the same source.

Like-named read-outs stand apart in the source and are kept apart here.

B1: VK2AAVH1A2 (antibody, V domains shown)
VH: EVQLVESGGGLVKPGGSLRLSCAASGFTFSDAWMDWVRQAPGKGLEWVGEARSKASNHATYYAESVKGRFTISRDDSKNTLYLQMNSLKTEDTAVYYCTRWRRFFDSWGQGTLVTVSS
VL: DIQLTQSPSSLSASVGDRATITCRASSSVSYMHWYQQKPGKAPKPWAYATSNLASGVPSRFSGSGSGTDYTLTISSLQPEDFATYYCQQWSSNPLTFGGGTKVEIK
notes: IgG1 heavy chain, kappa light chain
In the case of B1, the “Relative IC50 (fold of chimeric anti-endoglin antibody)” value in experiment [1] is 0.99 fold relative to chimeric. For the same molecule, the “IC50 (read off the curve)” value in experiment [2] is roughly 0.2 mg/L.

B2: VK1AAVH1R (antibody, V domains shown)
VH: EVQLVESGGGLVKPGGSLRLSCAASGFTFSDAWMDWVRQAPGKGLEWVGEIRSRASNHATYYAESVKGRFTISRDDSKNTLYLQMNSLKTEDTAVYYCTRWRRFFDSWGQGTLVTVSS
VL: DIQMTQSPSSLSASVGDRATITCRASSSVSYMHWYQQKPGKAPKPWAYATSNLASGVPSRFSGSGSGTDYTLTISSLQPEDFATYYCQQWSSNPLTFGGGTKVEIK
notes: as for B1
In general, Kd refers to the constant that tells how readily two partners part at equilibrium. Usually koff stands for a measure of how fast the partners let go of each other. The term kon denotes the rate constant with which the complex forms. On to B2, for which the “Relative IC50 (fold of chimeric anti-endoglin antibody)” value in experiment [1] is 1.05 fold relative to chimeric. Further, in the experiment with recombinant endoglin, the Kd came to 0.533 nM, the koff came to 3.41e-05 s⁻¹ and the kon was found to be 64000 M⁻¹ s⁻¹. The “IC50 (read off the curve)” value in experiment [3] was roughly 0.2 mg/L.

B3: VK1AAVH1A2 (antibody, V domains shown)
VH: EVQLVESGGGLVKPGGSLRLSCAASGFTFSDAWMDWVRQAPGKGLEWVGEARSKASNHATYYAESVKGRFTISRDDSKNTLYLQMNSLKTEDTAVYYCTRWRRFFDSWGQGTLVTVSS
VL: DIQMTQSPSSLSASVGDRATITCRASSSVSYMHWYQQKPGKAPKPWAYATSNLASGVPSRFSGSGSGTDYTLTISSLQPEDFATYYCQQWSSNPLTFGGGTKVEIK
notes: IgG1 heavy chain, kappa light chain; also called humanized/deimmunized anti-endoglin antibody VK1AAVH1A2
With B3, the “Relative IC50 (fold of chimeric anti-endoglin antibody)” value in experiment [1] was 1.12 fold relative to chimeric. For the same molecule, in the experiment with recombinant endoglin, the Kd was determined as 0.706 nM, the koff was determined as 3.25e-05 s⁻¹ and the kon turned out to be 46000 M⁻¹ s⁻¹. Besides, the “IC50 (read off the curve)” value in experiment [4] was roughly 0.2 mg/L.

B4: VK2AAVH1R (antibody, V domains shown)
VH: EVQLVESGGGLVKPGGSLRLSCAASGFTFSDAWMDWVRQAPGKGLEWVGEIRSRASNHATYYAESVKGRFTISRDDSKNTLYLQMNSLKTEDTAVYYCTRWRRFFDSWGQGTLVTVSS
VL: DIQLTQSPSSLSASVGDRATITCRASSSVSYMHWYQQKPGKAPKPWAYATSNLASGVPSRFSGSGSGTDYTLTISSLQPEDFATYYCQQWSSNPLTFGGGTKVEIK
notes: as for B1
Regarding B4, in experiment [1], the “Relative IC50 (fold of chimeric anti-endoglin antibody)” value is 0.61 fold relative to chimeric. For the same molecule, the “IC50 (read off the curve)” value in experiment [5] and in [6] was roughly 0.1 mg/L throughout.

B5: VK2AAVH1Q (antibody, V domains shown)
VH: EVQLVESGGGLVKPGGSLRLSCAASGFTFSDAWMDWVRQAPGKGLEWVGEIRSQASNHATYYAESVKGRFTISRDDSKNTLYLQMNSLKTEDTAVYYCTRWRRFFDSWGQGTLVTVSS
VL: DIQLTQSPSSLSASVGDRATITCRASSSVSYMHWYQQKPGKAPKPWAYATSNLASGVPSRFSGSGSGTDYTLTISSLQPEDFATYYCQQWSSNPLTFGGGTKVEIK
notes: as for B1
In the case of B5, the “Relative IC50 (fold of chimeric anti-endoglin antibody)” value in experiment [1] is 0.76 fold relative to chimeric. Also, the “IC50 (read off the curve)” value in experiment [5] and in [7] was roughly 0.1 mg/L in each case.

B6: VK1AAVH1Q (antibody, V domains shown)
VH: EVQLVESGGGLVKPGGSLRLSCAASGFTFSDAWMDWVRQAPGKGLEWVGEIRSQASNHATYYAESVKGRFTISRDDSKNTLYLQMNSLKTEDTAVYYCTRWRRFFDSWGQGTLVTVSS
VL: DIQMTQSPSSLSASVGDRATITCRASSSVSYMHWYQQKPGKAPKPWAYATSNLASGVPSRFSGSGSGTDYTLTISSLQPEDFATYYCQQWSSNPLTFGGGTKVEIK
notes: as for B1
Turning to B6, the “Relative IC50 (fold of chimeric anti-endoglin antibody)” value in experiment [1] is 1.3 fold relative to chimeric. In addition, in the experiment with recombinant endoglin, the Kd turned out to be 0.85 nM, the off-rate constant (koff) turned out to be 3.03e-05 s⁻¹ and the kon was 35600 M⁻¹ s⁻¹. Also, the “IC50 (read off the curve)” value in experiment [8] is roughly 0.2 mg/L.

B7: chimeric anti-CD105 antibody TRC105 (antibody, V domains shown)
VH: EVKLEESGGGLVQPGGSMKLSCAASGFTFSDAWMDWVRQSPEKGLEWVAEIRSKASNHATYYAESVKGRFTISRDDSKSSVYLQMNSLRAEDTGIYYCTRWRRFFDSWGQGTTLTVSS
VL: QIVLSQSPAILSASPGEKVTMTCRASSSVSYMHWYQQKPGSSPKPWIYATSNLASGVPVRFSGSGSGTSYSLTISRVEAEDAATYYCQQWSSNPLTFGAGTKLELK
notes: Chimeric monoclonal antibody with the murine SN6j variable regions; also called chimeric anti-endoglin antibody; c-SN6j
For B7, in the experiment with recombinant endoglin, the Kd is 0.6 nM. Moreover, the koff in the experiment with recombinant endoglin worked out at 3.28e-05 s⁻¹. Further, the kon with recombinant endoglin came out at 54700 M⁻¹ s⁻¹. Moreover, the “IC50 (read off the curve)” value in experiment [5], in [9], in experiment [7], in experiment [6], in experiment [4] and in experiment [8] was roughly 0.2 mg/L each time. For the same molecule, the “IC50 (read off the curve)” value in [3] and in experiment [2] was roughly 0.2 mg/L each time.

Values taken from patent US20200048360A1 (TRACON PHARMACEUTICALS, published 2020).
